These results are taken from patent US20230331827A1, “POTASSIUM CHANNEL INHIBITORS” (priority 2017, published 2023).

The IC50 is the concentration needed to halve the response being measured. High values mean weaker potency, low ones greater potency.

For one assay, the system named is trypsin. The experiment in a line: Phage TRF binding assay on immobilised biotinylated trypsin (monoclonal phage ELISA). The conditions noted are these: EETI-II in 5-3 frame, value in brackets after clone name. The procedure: Phage display technology facilitates isolation of binders to any given target from large combinatorial repertoires based on proteins and peptides that can be presented on the surface of filamentous phage^105. In order to isolate functional knottin-antibody fusions from the KnotBody libraries multiple rounds of phage display selections on trypsin (cognate antigen for the EETI-II donor) were carried out. Phage particles were prepared by rescuing KnotBody libraries using trypsin cleavable helper phage ^102,106Two rounds of phage display selections were performed on 10 µg/ml biotinylated trypsin immobilised on Streptavidin (for Round-1) or Neutravidin (for round-2) coated Maxisorp™ immunotubes (Thermo Scientific, Cat No. 444202). In both rounds of selection, phage libraries were pre-incubated with streptavidin coated paramagnetic beads (Thermo Fisher Scientific, Cat. No. 11205D). These beads were removed prior to the addition the phage to the antigen tubes to limit the streptavidin binders entering the selection. Polyclonal phage preparations from round-2 selection outputs were analysed for trypsin binding using a time resolved fluorescence (TRF) binding assay. In this assay, polyclonal phage binding to biotinylated trypsin immobilised on neutravidin (Thermo Fisher Scientific, Cat. No 31000) coated Maxisorp™ plates (Thermo Scientific, Cat. No. 437111) was detected using a mouse anti-M13 antibody (GE Healthcare, Cat. No. 27-9420-01) followed by europium conjugated anti-mouse antibody (Perkin Elmer, Cat. No. AD0124).
In order to identify monoclonal KnotBodies with desired binding characteristics, 94 individual clones derived from 2 rounds of selection using EETI-II CDR1 or CDR2 libraries were picked into 96 well culture plates and phage were prepared from each clone. Methods for screening by monoclonal phage ELISA are known in the art^107. […] Clones with >3x binding signal above background were picked as positive clones and sequenced to identify unique clones. 14 and 42 unique binders were identified from EETI-II CDR1 and EETI-II CDR2 libraries respectively (Table 1). 18 binders from the EETI-II CDR2 library and 3 binders from the EETI-II-CDR1 library were chosen for further characterisation based on their VL and linker sequence diversity. These binders were assigned new clone identification numbers (Table 2).
The trypsin binding capability of EETI-II is attributed to proline (Pro3) and arginine (Arg4) residues present in its loop1 (GCPRILMRC; SEQ ID NO: 68). […] Monoclonal phage was prepared from the 21 selected clones and their mutant equivalents. […] Replacement of the trypsin-binding residues of EETI-II abolished the ability of all KnotBody clones to bind to trypsin (Table 3). In order to confirm that the loss of trypsin binding was not due to reduced expression or display of pIII fusion phage was prepared from 11 (randomly chosen) KnotBodies and their GlyAla variants were analysed on a western blot using an antibody which recognises the product of gene 3 (pIII) using an anti-pIII antibody (MoBiTec GmbH) (FIG. 6).
Bovine antibodies have been described with natural ultra-long VH CDR3s containing a solvent exposed double stranded antiparallel sheet approximately 20 A° in length (referred to as the stalk) presenting a folded domain stabilised by 3 disulfide bonds (referred to as the Knob)^10. Zhang and colleagues have shown that the Knob domains of these cow ultra-long VH CDR3 antibodies (ULVC-Ab) can be replaced with other folded proteins such as erythropoietin^13. In this example, we assess the ability of a cow ULVC-Ab to present functional knottin fusions on phage in comparison with a KnotBody. In order to create a Knottin-cow UCLA fusion, the sequence between the first and the last cysteines of the knob region of the Cow ULVC-Ab BLV1H12 was replaced with the sequence of the trypsin binding knottin; EETI-II (EETI-II cow ULVC-Ab). A gene fragment encoding this construct was synthesised (Integrated DNA technologies, Table 21). […]
On the technique in general: In an ELISA, binding on a coated surface is turned into a signal by an enzyme label.

The target in another assay is T1, huKv1.3 (Homo sapiens, UniProt P22001).
T1 construct: host or cells: CHO
T1 sequence (P22001 whole entry): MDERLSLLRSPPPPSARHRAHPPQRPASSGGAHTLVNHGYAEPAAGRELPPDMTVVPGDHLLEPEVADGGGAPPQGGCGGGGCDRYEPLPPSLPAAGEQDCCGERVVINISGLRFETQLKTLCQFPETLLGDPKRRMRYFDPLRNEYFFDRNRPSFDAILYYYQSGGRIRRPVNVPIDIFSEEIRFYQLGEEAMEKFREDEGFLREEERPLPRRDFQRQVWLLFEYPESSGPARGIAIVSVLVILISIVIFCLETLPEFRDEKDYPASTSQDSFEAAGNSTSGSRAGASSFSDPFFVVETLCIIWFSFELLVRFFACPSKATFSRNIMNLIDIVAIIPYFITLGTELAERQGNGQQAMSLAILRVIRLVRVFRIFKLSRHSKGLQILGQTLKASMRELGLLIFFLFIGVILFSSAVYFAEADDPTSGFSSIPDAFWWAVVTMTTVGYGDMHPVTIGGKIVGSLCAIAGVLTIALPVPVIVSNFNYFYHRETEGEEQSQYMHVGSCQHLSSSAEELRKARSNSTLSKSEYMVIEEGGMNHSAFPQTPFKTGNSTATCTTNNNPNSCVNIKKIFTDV
Nature of the assay: QPatch automated whole-cell patch-clamp, CHO cells stably expressing huKv1.3 (Example 8). Format: cell-based. The procedure:
(§1) Knottin Kv 1.3 and ASIC1a blockers expressed in the KnotBody format (see examples 6 and 7) were tested for their ability to inhibit the function of the ion channel targets. The effect of these KnotBodies on cells expressing the human Kv 1.3 (huKv1.3) or human ASIC1a channels was assessed using QPatch automated whole-cell patch-clamp electrophysiology (Sophion).
For the testing of Kv1.3, CHO cells stably expressing huKv1.3 (Charles River Lab) were analysed using the QPatch electrophysiology assay in the presence or absence of the KnotBody fusions or the antibody isotypes (negative) controls. Internal and external physiological solutions were freshly prepared prior to the assay. The extracellular solution contained 145 mM NaCl, 4 mM KCl, 2 mM CaCl2, 1 mM MgCl2, 10 mM HEPES and 10 mM glucose; the pH was adjusted to 7.4 with NaOH; the osmolarity was ~ 305 mOsm/L. The intracellular solution contained: KF (120 mM), KCl (20 mM), HEPES (10 mM) and EGTA (10 mM); the pH was adjusted to 7.2 with KOH; osmolarity was ~ 320 mOsm/L.
A series of depolarising voltage (channel activating) pulses were used to monitor the channel currents upon adding control (extracellular solution) to define a control baseline of current activity. To these measured control currents ascending concentrations of KnotBodies or parental antibody isotypes (control molecules) were applied to the external bathing solution (2.2 µM - 0.5 nM, diluted in the extracellular solution). KnotBodies KB_A12 and KB_A07 (EETI-II fusions) were used as isotype controls for the testing. From a holding voltage of -80 mV a depolarising, activating voltage pulses of +30 or +80 mV were applied for 300 ms, every 5 or 10 seconds. The elicited, maximum outward current values measured during the activating step for each solution exchange period were averaged (n = 3 - 8 for each concentration applied) and plotted as concentration-response curves. KB_A07_ShK, KB_A12_ShK and KB_A07_Kaliotoxin (KTX) fusion proteins all inhibited the huKv1.3 currents in a concentration dependent manner with IC50S of approximately 20 nM, 40 nM and 900 nM respectively.
(The patch-clamp technique gives a direct electrical read-out from membranes.)

The target of a further assay is T2, huASIC1a (Homo sapiens, UniProt P78348).
T2 construct: host or cells: HEK293
T2 sequence (P78348 1-528): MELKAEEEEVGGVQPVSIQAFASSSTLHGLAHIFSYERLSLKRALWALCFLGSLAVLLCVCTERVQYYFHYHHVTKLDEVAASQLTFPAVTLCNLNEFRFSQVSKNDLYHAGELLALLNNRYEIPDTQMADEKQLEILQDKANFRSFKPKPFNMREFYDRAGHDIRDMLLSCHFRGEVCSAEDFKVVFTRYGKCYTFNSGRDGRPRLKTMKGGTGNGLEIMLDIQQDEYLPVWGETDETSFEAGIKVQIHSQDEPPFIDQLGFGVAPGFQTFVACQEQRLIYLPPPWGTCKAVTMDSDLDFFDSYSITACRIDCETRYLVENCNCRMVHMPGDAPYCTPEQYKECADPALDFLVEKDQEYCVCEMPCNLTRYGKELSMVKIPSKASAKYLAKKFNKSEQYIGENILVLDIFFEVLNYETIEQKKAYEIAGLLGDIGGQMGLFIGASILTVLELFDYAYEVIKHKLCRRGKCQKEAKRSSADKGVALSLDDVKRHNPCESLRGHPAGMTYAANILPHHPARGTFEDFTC
The experiment in a line: QPatch electrophysiology, HEK293 cells stably expressing huASIC1a. Format: cell-based. Conditions: ASIC1a current at pH 6.0 after 15-20 minutes KnotBody pre-incubation, 2.3-6.6 µM. The procedure:
as §1
To functionally assess the ASIC1a KnotBodies, HEK293 cells stably expressing huASIC1a (Sophion) were analysed using a QPatch electrophysiology assay in the presence or absence of the KnotBody fusions (using KB_A12 as a recipient and replacing the original EETI-II donor as shown in Table 8). The “parental” KB_A12 with the EETI-II donor was used as a negative control. Internal and external physiological solutions were freshly prepared prior to the assay. The extracellular solution contained 145 mM NaCl, 4 mM KCl, 2 mM CaCl2, 1 mM MgCl2, 10 mM HEPES and 10 mM glucose; the pH was adjusted to 7.4 with NaOH (for control, resting-state pH) or 6.0 with MES (for acidic, activating-state pH); the osmolarity was ~ 305 mOsm/L. The intracellular solution contained: CsF (140 mM), HEPES (10 mM), NaCl (10 mM) and EGTA/CsOH (1 mM/5 mM); the pH was adjusted to 7.3 with CsOH; osmolarity was ~ 320 mOsm/L.
Throughout ASIC 1a recordings the recording cell membrane voltage was clamped at -60 mV. ASIC1a baseline control currents were elicited by applying external solution at activating pH 6.0 for 3000 ms. This activating pH application was repeated three further times, giving four baseline control ASIC1a currents. The recording cells were then pre-incubated with KnotBody diluted in external solution at pH 7.4 for 15-20 minutes. Following this KnotBody pre-incubation the same concentration of KnotBody in external solution at activating pH 6.0 was applied to the cell recording.
At the end of each KnotBody incubation and subsequent ASIC1a current activation, a full blocking concentration (300 nM) of the ASIC1a knottin inhibitor PcTx1 (positive control) was perfused onto the cell recording and a final activating pH 6.0 external solution was applied. The percentage remaining signal between activating pH 6.0 baseline (i.e. pre-KnotBody) and post-KnotBody incubation was determined.

Where [1] appears, read: Kv1.3 channels, IgG KnotBody, Table 11A.
[2] abbreviates: huKv1.3 currents, text of Example 8, approximately.

B1: F01: KnotBody with alternative 5-3 framing of EETI-II, VL CDR2 (protein)
chain: DIQMTQSPSSLSASVGDRVTITCRASQSISSYLNWYQQKPGKAPKLLIDAAGECGPNGFCGSGSDGGVCPRINMRCKQDSDCLAGCGRDSGVPSRFSGSGSGTDFTLTISSLQPEDFATYYCQQSYSTPWTFGQGTKVEIKRT
modifications: F01 (101798)
notes: KnotBody with alternative 5-3 framing of EETI-II, VL CDR2
In the case of B1, the “ELISA signal from monoclonal phage ELISA” value in the assay with trypsin is reported as “F01”.

B2: KB_A07_ShK: ShK toxin in VL CDR2 of KB_A07, IgG1 (antibody, V domains shown)
VH: EVQLVESGGGLVRPGGSLRLSCAASGFTFSSYAMSWVRQAPGKGLEWVSAISGSGGSTYYADSVKGRFTISRDNTKNSLYLQMTSLRADDTAFYYCVKDFGPGYGTGWFDYWGPGTLVTVSS
VL: DIQMTQSPSSLSASVGDRVTITCRASQSISSYLNWYQQKPGKAPKLLIYAAGVRSCIDTIPKSRCTAFQCKHSMKYRLSFCRKTCGTCSRSGVPSRFSGSGSGTDFTLTISSLQPEDFATYYCQQGASPPYTFGQGTKVEIKR
Turning to B2, the IC50 was 0.04 µM in the assay with huKv1.3 (setting [1]) and approximately 0.02 µM with huKv1.3 (setting [2]).

B3: KB_A12_PcTx1: PcTx1 in VL CDR2 of KB_A12 (antibody)
VH: EVQLVESGGGLVRPGGSLRLSCAASGFTFSSYAMSWVRQAPGKGLEWVSAISGSGGSTYYADSVKGRFTISRDNTKNSLYLQMTSLRADDTAFYYCVKDFGPGYGTGWFDYWGPGTLVTVSS
VL: QSVLTQPPSVSEAPRQRVTITCSGSSSNIGNNAVNWYQQLPGKAPKLLIYAAGREDCIPKWKGCVNRHGDCCEGLECWKRRRSFEVCVPKTPKTANSGVSDRFSAAKSGTSASLAINGLRSEDEADYYCAAWDDSLNGYVFGTGTKLTVLG
Consider B3, for which the “% current remaining” value with huASIC1a stood at 4.8%.

B4: KB_A07_PcTx1: PcTx1 in VL CDR2 of KB_A07 (antibody, V domains shown)
VH: EVQLVESGGGLVRPGGSLRLSCAASGFTFSSYAMSWVRQAPGKGLEWVSAISGSGGSTYYADSVKGRFTISRDNTKNSLYLQMTSLRADDTAFYYCVKDFGPGYGTGWFDYWGPGTLVTVSS
VL: DIQMTQSPSSLSASVGDRVTITCRASQSISSYLNWYQQKPGKAPKLLIYAAGVEDCIPKWKGCVNRHGDCCEGLECWKRRRSFEVCVPKTPKTSRSGVPSRFSGSGSGTDFTLTISSLQPEDFATYYCQQGASPPYTFGQGTKVEIKR
In the case of B4, the “% current remaining” value with huASIC1a came out at 4.8%; in the assay with huASIC1a (listed as KB A07 PcTx1) it was 6.2%.

B5: KB_A12_Mba-1: Mambalgin-1 in VL CDR2 of KB_A12 (antibody)
VH: EVQLVESGGGLVRPGGSLRLSCAASGFTFSSYAMSWVRQAPGKGLEWVSAISGSGGSTYYADSVKGRFTISRDNTKNSLYLQMTSLRADDTAFYYCVKDFGPGYGTGWFDYWGPGTLVTVSS
VL: QSVLTQPPSVSEAPRQRVTITCSGSSSNIGNNAVNWYQQLPGKAPKLLIYAAGRLKCYQHGKVVTCHRDMKFCYHNTGMPFRNLKLILQGCSSSCSETENNKCCSTDRCNKANSGVSDRFSAAKSGTSASLAINGLRSEDEADYYCAAWDDSLNGYVFGTGTKLTVLGQP
B5: the “% current remaining” value in the assay with huASIC1a is recorded as “same level of current as the KB_A12 negative control”; with huASIC1a (listed as KB A12 Mba-1), 69.2%.

B6: KB_A07_KTX: kaliotoxin in VL CDR2 of KB_A07, IgG1 (antibody, V domains shown)
VH: EVQLVESGGGLVRPGGSLRLSCAASGFTFSSYAMSWVRQAPGKGLEWVSAISGSGGSTYYADSVKGRFTISRDNTKNSLYLQMTSLRADDTAFYYCVKDFGPGYGTGWFDYWGPGTLVTVSS
VL: DIQMTQSPSSLSASVGDRVTITCRASQSISSYLNWYQQKPGKAPKLLIYAAGVGVEINVKCSGSPQCLKPCKDAGMRFGKCMNRKCHCTPKSRSGVPSRFSGSGSGTDFTLTISSLQPEDFATYYCQQGASPPYTFGQGTKVEIKR
As for B6, the figures for the IC50 with huKv1.3 (setting [1]) and with huKv1.3 (setting [2]) were 0.9 µM and approximately 0.9 µM, respectively.
